From publication PMC3696906

Legend:
[1] = target: human CD28-Fc (human, UniProt P10747 19-152); assay: filter binding?
[2] = target: T1, murine CD28-Fc (mouse, UniProt P31041 20-150); assay: filter binding
T1 sequence: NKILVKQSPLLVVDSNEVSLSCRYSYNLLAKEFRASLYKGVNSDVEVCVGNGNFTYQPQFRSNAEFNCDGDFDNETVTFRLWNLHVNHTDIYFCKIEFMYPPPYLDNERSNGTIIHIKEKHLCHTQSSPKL

Sequence of human CD28-Fc (P10747 19-152): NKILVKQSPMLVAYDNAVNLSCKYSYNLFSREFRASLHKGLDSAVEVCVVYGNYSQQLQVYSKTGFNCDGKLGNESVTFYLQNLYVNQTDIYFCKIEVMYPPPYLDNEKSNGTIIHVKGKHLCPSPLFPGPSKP

B1: CD28Apt7 (monomer) (structured_RNA)
RNA: GGGAGAGAGGAAGAGGGAUGGGGAUUAGACCAUAGGCUCCCAACCCCCAUAACCCAGAGGUCGAUAGUACUGGAUCCCCCC
modifications: 2'-fluoropyrimidine (2'-F C and U)
With B1 the binding result [1] was “no binding” and the Kd [2] was 60 nM.
